According to PMC11574364:

T1: QKI (recombinant His-QKI) (UniProt Q96PU8)
T1 sequence: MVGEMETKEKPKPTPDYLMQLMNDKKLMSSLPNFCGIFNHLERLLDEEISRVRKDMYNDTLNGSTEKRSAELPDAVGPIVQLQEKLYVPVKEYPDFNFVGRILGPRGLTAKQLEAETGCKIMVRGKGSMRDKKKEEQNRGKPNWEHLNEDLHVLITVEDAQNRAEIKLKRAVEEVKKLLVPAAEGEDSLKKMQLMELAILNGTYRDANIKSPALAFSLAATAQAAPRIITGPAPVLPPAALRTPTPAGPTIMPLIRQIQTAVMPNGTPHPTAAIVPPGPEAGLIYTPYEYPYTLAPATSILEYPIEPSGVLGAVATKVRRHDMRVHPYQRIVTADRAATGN

T2: ARL10 (human, UniProt Q8N8L6 1-244)
T2 sequence: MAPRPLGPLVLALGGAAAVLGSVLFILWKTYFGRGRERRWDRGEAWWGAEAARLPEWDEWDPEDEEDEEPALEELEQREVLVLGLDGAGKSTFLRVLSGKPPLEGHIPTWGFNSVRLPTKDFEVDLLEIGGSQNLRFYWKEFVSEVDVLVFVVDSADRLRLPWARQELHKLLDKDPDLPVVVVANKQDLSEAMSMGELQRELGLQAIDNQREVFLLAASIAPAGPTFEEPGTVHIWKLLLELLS

T3: QKI (human ORF array) (human, UniProt Q96PU8 1-341)
T3 sequence: T1 sequence

T4: ZNF597 (human, UniProt Q96LX8 1-424)
T4 sequence: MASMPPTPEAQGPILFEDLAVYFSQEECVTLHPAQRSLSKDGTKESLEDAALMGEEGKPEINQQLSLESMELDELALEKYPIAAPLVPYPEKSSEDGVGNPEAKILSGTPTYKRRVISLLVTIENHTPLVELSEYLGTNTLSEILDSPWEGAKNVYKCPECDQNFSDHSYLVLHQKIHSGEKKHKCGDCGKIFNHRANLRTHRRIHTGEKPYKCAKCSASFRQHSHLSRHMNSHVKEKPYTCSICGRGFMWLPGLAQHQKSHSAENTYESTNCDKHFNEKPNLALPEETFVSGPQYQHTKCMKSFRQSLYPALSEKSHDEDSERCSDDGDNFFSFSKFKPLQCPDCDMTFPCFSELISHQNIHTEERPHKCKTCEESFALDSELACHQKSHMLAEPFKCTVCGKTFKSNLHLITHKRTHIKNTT

T5: ISY1 (human, UniProt Q9ULR0 1-285)
T5 sequence: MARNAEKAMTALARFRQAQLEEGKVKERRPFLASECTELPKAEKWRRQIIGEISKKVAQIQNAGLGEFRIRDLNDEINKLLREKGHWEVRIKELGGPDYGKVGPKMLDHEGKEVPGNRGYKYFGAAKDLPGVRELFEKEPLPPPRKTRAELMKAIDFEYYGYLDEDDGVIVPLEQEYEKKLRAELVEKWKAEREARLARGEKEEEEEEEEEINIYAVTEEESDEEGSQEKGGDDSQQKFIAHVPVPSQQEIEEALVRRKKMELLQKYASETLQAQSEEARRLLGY

T6: HIS-QKI (RNA-binding domain array) (human, UniProt Q96PU8 1-341)
T6 sequence: T1 sequence


These molecules were tested against T1, QKI (recombinant His-QKI) (assay: fluorescence polarization). Settings: 2 mM Mg2+; FP: 20 mM HEPES pH 7.4, 150 mM NaCl, 2 mM MgCl2, 1 U/ul RiboLock, 10 mM DTT, 3 nM Cy3-RNA, 5 min, room temperature; domain array: 20 mM Tris-HCl pH 7.4, 200 mM ….

Row | Molecule | Kd
1 | CAGUGCAAUGAUGAAAGGGCAU [miR-130b-Cy3] | 7.03 nM
2 | UGAGGUAGUAGGUUGUGUGGUU [let-7b-Cy3] | 8.07 nM
3 | UAGCUUAUCAGACUGAUGUUGA [miR-21-Cy3] | 48.5 nM

These molecules were tested against T2, ARL10 (assay: protein microarray; FP: 20 mM HEPES pH 7.4, 150 mM NaCl, 2 mM MgCl2, 1 U/ul RiboLock, 10 mM DTT, 3 nM Cy3-RNA, 5 min, room temperature; domain array: 20 mM Tris-HCl pH 7.4, 200 mM). Settings: not given.

Row | Molecule | binding result
4 | CAGUGCAAUGAUGAAAGGGCAU (ssRNA) [miR-130b (internal labeling)] | binds
5 | UAGCUUAUCAGACUGAUGUUGA (ssRNA) [miR-21 (internal labeling)] | binds
6 | UGAGGUAGUAGGUUGUGUGGUU (ssRNA, 5' phosphate; amino-C6 U at position 18) [let-7b (internal labeling)] | binds

The molecules below were run against ZIC3 (human, UniProt O60481 1-467) in the same assay as above. Settings: not given.
ZIC3, sequence (O60481 whole entry): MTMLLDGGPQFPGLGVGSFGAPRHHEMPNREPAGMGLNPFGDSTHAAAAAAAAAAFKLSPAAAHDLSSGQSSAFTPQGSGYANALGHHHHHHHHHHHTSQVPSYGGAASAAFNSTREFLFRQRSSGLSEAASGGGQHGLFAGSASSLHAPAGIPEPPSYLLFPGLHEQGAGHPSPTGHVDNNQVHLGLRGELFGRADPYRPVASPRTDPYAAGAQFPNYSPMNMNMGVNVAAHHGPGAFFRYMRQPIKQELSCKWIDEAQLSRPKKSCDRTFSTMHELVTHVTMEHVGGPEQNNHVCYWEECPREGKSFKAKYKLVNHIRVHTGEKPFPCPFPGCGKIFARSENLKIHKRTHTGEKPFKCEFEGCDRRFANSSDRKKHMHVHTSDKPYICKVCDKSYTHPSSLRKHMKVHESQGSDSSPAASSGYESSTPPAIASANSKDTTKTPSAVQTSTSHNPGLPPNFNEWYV

Row | Molecule | binding result
7 | CAGUGCAAUGAUGAAAGGGCAU (ssRNA) [miR-130b (internal labeling)] | binds
8 | UAGCUUAUCAGACUGAUGUUGA (ssRNA) [miR-21 (internal labeling)] | binds
9 | UGAGGUAGUAGGUUGUGUGGUU (ssRNA, 5' phosphate; amino-C6 U at position 18) [let-7b (internal labeling)] | binds

The molecules below were run against ZNF490 (human, UniProt Q9ULM2 1-529) in the same assay as above. Settings: not given.
ZNF490, sequence (Q9ULM2 whole entry): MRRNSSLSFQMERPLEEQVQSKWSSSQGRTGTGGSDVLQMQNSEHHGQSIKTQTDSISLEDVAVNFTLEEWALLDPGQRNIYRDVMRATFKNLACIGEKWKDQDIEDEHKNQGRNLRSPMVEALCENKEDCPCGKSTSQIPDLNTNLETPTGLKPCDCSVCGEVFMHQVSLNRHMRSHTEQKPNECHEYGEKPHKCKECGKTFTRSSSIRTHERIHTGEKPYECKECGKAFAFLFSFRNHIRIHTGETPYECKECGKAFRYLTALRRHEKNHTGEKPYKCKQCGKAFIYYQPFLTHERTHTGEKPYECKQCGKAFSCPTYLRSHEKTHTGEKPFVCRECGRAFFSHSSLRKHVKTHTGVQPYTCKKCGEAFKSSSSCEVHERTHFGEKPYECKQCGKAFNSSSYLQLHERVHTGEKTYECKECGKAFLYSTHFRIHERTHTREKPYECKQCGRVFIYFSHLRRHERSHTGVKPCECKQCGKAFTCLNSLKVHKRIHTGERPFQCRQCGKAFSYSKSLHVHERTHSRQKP

Row | Molecule | binding result
10 | CAGUGCAAUGAUGAAAGGGCAU (ssRNA) [miR-130b (internal labeling)] | binds
11 | UAGCUUAUCAGACUGAUGUUGA (ssRNA) [miR-21 (internal labeling)] | binds
12 | UGAGGUAGUAGGUUGUGUGGUU (ssRNA, 5' phosphate; amino-C6 U at position 18) [let-7b (internal labeling)] | binds

The molecules below were run against T3, QKI (human ORF array) in the same assay as above. Settings: not given.

Row | Molecule | binding result
13 | UGAGGUAGUAGGUUGUGUGGUU (ssRNA, 5' phosphate; amino-C6 U at position 18) [let-7b (internal labeling)] | binds

What follows are molecules tested against T4, ZNF597 in the same assay as above. Settings: not given.

Row | Molecule | binding result
14 | CAGUGCAAUGAUGAAAGGGCAU (ssRNA) [miR-130b (internal labeling)] | binds
15 | UAGCUUAUCAGACUGAUGUUGA (ssRNA) [miR-21 (internal labeling)] | binds
16 | UGAGGUAGUAGGUUGUGUGGUU (ssRNA, 5' phosphate; amino-C6 U at position 18) [let-7b (internal labeling)] | binds

Each molecule was assayed against T5, ISY1 in the same assay as above. Settings: not given.

Row | Molecule | binding result
17 | CAGUGCAAUGAUGAAAGGGCAU (ssRNA) [miR-130b (internal labeling)] | binds
18 | UAGCUUAUCAGACUGAUGUUGA (ssRNA) [miR-21 (internal labeling)] | binds
19 | UGAGGUAGUAGGUUGUGUGGUU (ssRNA, 5' phosphate; amino-C6 U at position 18) [let-7b (internal labeling)] | binds

What follows are molecules tested against T6, HIS-QKI (RNA-binding domain array) (assay: protein microarray probed with biotinylated miRNA; Domain array: 20 mM Tris-HCl pH 7.4, 200 mM KCl, 0.2 mM EDTA, 0.05% NP40, 2 ug/ul heparin, overnight 4 C. ORF array: PBS pH 7.0 with RNase inhibitor, 100 ng RNA; high values mean tight binding). Settings: not given.

Row | Molecule | binding signal
20 | UGAGGUAGUAGGUUGUAUAGUU (ssRNA) [let-7a biotin/Cy3] | 336 ± 27.5 fluorescence intensity
21 | UGAGGUAGUAGGUUGUAUGGUU (ssRNA) [let-7c biotin/Cy3] | 1280 ± 235 fluorescence intensity
22 | AGAGGUAGUAGGUUGCAUAGUU (ssRNA) [let-7d biotin/Cy3] | 1210 ± 167 fluorescence intensity
23 | UAGCUUAUCAGACUGAUGUUGA (ssRNA) [miR-21 biotin/Cy3] | 26.4 ± 0.354 fluorescence intensity
24 | CAGUGCAAUGAUGAAAGGGCAU (ssRNA) [miR-130b biotin/Cy3] | 428 ± 18.2 fluorescence intensity
25 | UGAGGUAGUAGGUUGUGUGGUU (ssRNA) [let-7b biotin/Cy3] | 1340 ± 56.7 fluorescence intensity
